Source: patent US20110093964A1 (COMMISSARIAT A L ENERGIE ATOMIQUE, published 2011)

Molecular target: native bovine brain calmodulin (bovine, UniProt P62157 2-149)
Assay: tryptophan fluorescence of 5 uM MLCKp (excitation 280 nm) in 10 mM MES pH 6.5, one equivalent of calmodulin, no metals

binding result: binds
B1: MLCKp peptide, 17 residues, derived from the calmodulin-binding domain of a rabbit muscle myosin light chain kinase (CALBIOCHEM) (peptide)
peptide: Ac-RRKWQKTGHAVRAIGRL-NH2
notes: Its tryptophan is the fluorescent probe of the assay; also called calmodulin ligand peptide; the ligand
